Changes are numbered by the printed parent chain.
T1: Claudin-4 (CLDN4) (human, UniProt O14493 1-209)
T1 construct: whole, on cells; also called CLDN4-GFP; CLDN4-mGFP
T1 sequence (looked up): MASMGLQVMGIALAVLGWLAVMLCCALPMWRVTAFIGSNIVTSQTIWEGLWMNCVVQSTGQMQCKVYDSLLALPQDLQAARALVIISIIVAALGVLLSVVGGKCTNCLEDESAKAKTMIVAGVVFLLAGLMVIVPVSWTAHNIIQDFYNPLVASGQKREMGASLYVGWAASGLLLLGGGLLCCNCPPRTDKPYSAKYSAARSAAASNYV

T2: Claudin-9 (CLDN9) (human, UniProt O95484 1-217)
T2 construct: whole, on cells; also called CLDN9-GFP; CLDN9-mGFP
T2 sequence (looked up): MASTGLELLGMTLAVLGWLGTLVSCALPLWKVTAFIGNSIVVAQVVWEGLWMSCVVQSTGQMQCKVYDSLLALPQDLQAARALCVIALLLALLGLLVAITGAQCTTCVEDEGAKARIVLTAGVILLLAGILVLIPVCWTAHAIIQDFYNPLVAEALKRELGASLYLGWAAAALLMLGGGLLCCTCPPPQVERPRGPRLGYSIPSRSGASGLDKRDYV

T3: mouse Claudin-6 (CLDN6) (mouse, UniProt Q9Z262 1-219)
T3 construct: whole, on cells; GFP fusion on engineered HEK293T cells; also called Mouse CLDN6; murine CLDN6
T3 sequence (looked up): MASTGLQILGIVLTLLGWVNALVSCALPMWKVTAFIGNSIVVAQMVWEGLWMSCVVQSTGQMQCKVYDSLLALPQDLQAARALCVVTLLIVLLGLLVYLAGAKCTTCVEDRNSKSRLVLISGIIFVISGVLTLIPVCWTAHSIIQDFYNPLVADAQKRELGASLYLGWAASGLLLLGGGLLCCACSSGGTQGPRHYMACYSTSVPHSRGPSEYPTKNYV

B1: AB1-6 (antibody, V domains shown)
VH: QVQLVQSGAEVKKPGASVKMSCKASGYTFTTYTMHWVRQAPGQGLEWIGFINPSSGYTDYAQKFQGRVTLTADTSTSTVYMELSSLRSEDTAVYYCANGDYYVAYWGQGTLVTVSS
VL: DIQMTQSPSSLSASVGDRVTITCTASSSVSSTYFHWYQQKPGKAPKLLIYSTSNLASGVPSRFSGSGSGTDYTLTISSLQPEDFATYYCHQYHRSPLTFGQGTKLEIK
notes: humanized
B2: AB19 (antibody, V domains shown)
VH: EVQLQQSGPELVKPGGSMKISCKASGYSFTGYTMNWVKRSHGKNLEWIGLINPYNGVTTYNQNFKGKATLAVDKSSSTAYMELLGLTSEDSAVYYCTRDPLYYGYRDSTMDYWGQGTSVTVSS
VL: NIMMTQSPSSLAVSAGEKVTMSCKSSQSVLFSSNQKNYLAWYQQKPGQSPRLLIYWASTRESGVPDRFTGSGSGTDFTLTISNVQAEDLAVYYCHQYLSSRTFGAGTKLELK
B3: AB1 (antibody, V domains shown)
VH: QVQLQQSAAELARPGASVKMSCKASGYTFTTYTMHWVKQRPGQGLEWIGFINPSSGYTDYNQKFKDRTTLTADKSSSTVYMQLSSLTSEDSAVYYCANGDYYVAYWGQGTLVTVSA
VL: QIVLTQSPAIMSASLGERVTMTCTASSSVSSTYFHWYQQKPGSSPKLWIYSTSNLASGVPRRFSGSASGTSYSLTISSMEAEDAATYYCHQYHRSPLTFGAGTKLELK
notes: full-length IgG (ExpiCHO)
B4: AB2 (antibody, V domains shown)
VH: EVKLEESGGGLVQPGGSMKLSCVASGFTFSDYWMNWVRQSPEKGLEWVAQIRLKSDNYATHYAESVKGRFTISRDDSKRSVYLQMNNLRAEDTGTYYCNDGPPSGCWGQGTTLIVSS
VL: DIQMTQSPASLSASVGETVTITCRISENIYSYLAWYQQKQGKSPQLLVYNAKILVEGVPSRFSGSGSGTQFSLKINSLQPEDFGNYYCQHHYTVPWTFGGGTKLEIK
notes: full-length IgG (ExpiCHO)
B5: AB3 (antibody, V domains shown)
VH: B4 VH with D31N
VL: B4 VL
notes: full-length IgG (ExpiCHO)
B6: AB5 (antibody, V domains shown)
VH: EVQLQQSGPELVKPGASVKMSCKASGYIFTHYIMHWVKQKPGQGLEWIGCINPYNDGTKYNEKFKGKATLTSDKSSSTAYMELSSLTSEDSAVYYCARYYGYPYYSMDYWGQGTSVTVSS
VL: DVLMTQTPLSLPVSLGDQPSISCRSSQSIVHSNGNTYLDWYLQKPGQSPKLLIYKVSNRFSGVPDRFSGSGSGTDFTLKISRVEAEDLGVYYCFQGSHVPFTFGSGTRLEIK
notes: full-length IgG (ExpiCHO)
B7: AB12 (antibody, V domains shown)
VH: EVKLMESGGDLVKPGGSLKLSCAASGFTFSSYAMSWVRQTPEKRLEWVASIRSGGTTYYPDSVKGRFTISRDNARNILYLRMSSLRSEDTAIYYCAKVGGNPYPMDYWGQGTSVTVSS
VL: DIQMIQSPSSMFASLGDRVSLSCRASQDIGGNLDWYQQKPGGTIKLLIYSTSNLNSGVPSRFSGSGSGSDYSLTITSLESEDFADYYCLQRNAYPLTFGAGTKLELK
notes: full-length IgG (ExpiCHO)
B8: AB11 (antibody, V domains shown)
VH: DVQLVESGGGLVQPRGSRKLSCAASGFTFSSFGMHWVRQAPEKGLEWVAYISSDSRTIYYADTVKGRFTISRDNPTNTLFLQMTSLRSEDTAMYYCARDYGRTYEAYWGQGTLVTVSA
VL: DIVLTQSPASLAVSLGQRATISCRASKSVSTSGYSYIHWYQQKPGQPPKLLIYLASNLESGVPARFSGSGSGTDFTLNIHPVEEEDAATYYCQHSRELPLTFGAGTKLELK
notes: full-length IgG (ExpiCHO)
B9: AB15 (antibody, V domains shown)
VH: B8 VH
VL: B2 VL
notes: full-length IgG (ExpiCHO)
B10: AB4 (antibody, V domains shown)
VH: QVQLQQSGAELARPGASVKMSCKASGYTFTSYTMHWIKQRPGQGQEWIGYINPSSTYTHYIKKFKDKATLTADKSSSTAYMQLRSLTSEDSAVYYCSRGELGGFAYWGQGTLVTVSA
VL: DVVMTQTPLSLPVSLGDQASISCRSSQSLVHSDGNTYLNWYLQKPGQSPKLLIYKVSNRFSGVPDRFSGSGSGTDFTLKIRRVEAEDLGVYFCSQSTHVPYTFGGGTKLEIK
notes: full-length IgG (ExpiCHO)
B11: AB10 (antibody, V domains shown)
VH: QIQLVQSGPALKKPGETVKISCKASGYTFTDYSMHWIKQAPGKGLKWMGWISTETGEPTYADGFKGRFDFSLETSADTAYLSINNLTNEDTATYFCTRGLWSSFAYWGQGTLVTVSA
VL: B10 VL with S25A, D33N, N39H, Y41F, G73R, R81S, S96I
notes: full-length IgG (ExpiCHO)

molecular target: human Claudin-6 (CLDN6) (human) (UniProt P56747); assay: FACS, 0.3 ug Ab, ARK2 cells (2nd Ab only 1351.21)

Row | FACS fluorescence | Binder
1 | 2820 | B1

molecular target: human Claudin-6 (CLDN6) (human) (UniProt P56747); assay: FACS, 1.5 ug Ab, ARK2 cells (2nd Ab only 1351.21)

Row | FACS fluorescence | Binder
2 | 7740 | B1

molecular target: human Claudin-6 (CLDN6) (human) (UniProt P56747); assay: FACS, 1.5 ug Ab, OVCA429 cells (2nd Ab only 885.77)

Row | FACS fluorescence | Binder
3 | 29900 | B1

molecular target: human Claudin-6 (CLDN6) (human) (UniProt P56747); assay: FACS titration of labelled mAb on HEK293T-CLDN6-mGFP cells

Row | EC50 [nM] | Binder
4 | 5000 | B2
5 | 109 | B3
6 | 182 | B4
7 | 604 | B5
8 | 10 | B6
9 | 5000 | B7
10 | 5000 | B1
11 | 1700 | B8
12 | 5000 | B9
13 | 17 | B10
14 | 2760 | B11

molecular target: human Claudin-6 (CLDN6) (human) (UniProt P56747); assay: FACS titration of labelled mAb on ARK2 cells (endogenous CLDN6+)

Row | EC50 [nM] | Binder
15 | 5000 | B2
16 | 105 | B3
17 | 1360 | B4
18 | 1650 | B5
19 | 8 | B6
20 | 1300 | B7
21 | 5000 | B1
22 | 363 | B8
23 | 5000 | B9
24 | 48 | B10
25 | 2140 | B11

molecular target: CLDN3/4 (endogenous on LS513 or MCF7 cells); assay: FACS titration of labelled mAb on MCF7 cells (endogenous CLDN3/4+)

Row | EC50 [nM] | Binder
26 | 5000 | B2
27 | 5000 | B3
28 | 5000 | B4
29 | 5000 | B5
30 | 1480 | B6
31 | 5000 | B7
32 | 5000 | B1
33 | 427 | B8
34 | 5000 | B9
35 | 653 | B10
36 | 5000 | B11

molecular target: CLDN3/4 (endogenous on LS513 or MCF7 cells); assay: FACS titration of labelled mAb on LS513 cells (endogenous CLDN3/4+)

Row | EC50 [nM] | Binder
37 | 5000 | B2
38 | 5000 | B3
39 | 5000 | B4
40 | 5000 | B5
41 | 781 | B6
42 | 2270 | B7
43 | 5000 | B1
44 | 493 | B8
45 | 5000 | B9
46 | 730 | B10
47 | 1950 | B11

molecular target: human Claudin-6 (CLDN6) (human) (UniProt P56747); assay: FACS titration of labelled mAb on OVCA429 cells (endogenous CLDN6+)

Row | EC50 [nM] | Binder
48 | 5000 | B2
49 | 84 | B3
50 | 912 | B4
51 | 1100 | B5
52 | 5 | B6
53 | 2290 | B7
54 | 5000 | B1
55 | 835 | B8
56 | 5000 | B9
57 | 168 | B10
58 | 2470 | B11

molecular target: T1, Claudin-4 (CLDN4); assay: FACS titration of labelled mAb on HEK293T CLDN4-mGFP cells
Experimental: (§1) CLDN6 antibodies were tested from 0.32 nM to 1000 nM (serial dilution 1:5, 6 points) in a 50 μl volume with 150,000 cells system.
(§2) CLDN6-expressing cells were used in FACS assays to determine the CLDN6 antibody's ability to bind to CLDN6 on the surface of cells and to cross-react with other CLDN family members. HEK293 T cells engineered to express human CLDN6 fused to GFP, mouse CLDN6 fused to GFP, CLDN9-GFP, CLDN4-GFP, or CLDN3-GFP, or GFP alone (without CLDN6) were used as artificial models of CLDN6 expression.
(§3) For each type of cell tested and for each mAb, cells were detached from the surface of the culture flasks by EDTA (instead of trypsin) in order to protect the cell surface proteins. The detached cells were then incubated with Alexa Fluor®-labeled CLDN6 mAbs for 30 min in the dark on ice at a pre-determined concentration. […] After washing, the cells were read by a BD Accuri™ Flow Cytometer C6 to detect antibody-antigen protein binding in channel FL4H. Each antibody was tested at varied concentrations to establish a dose-fluorescence curve. […] Cross-reactivity data were obtained using a similar methodology, but with cells having a different expression profile for CLDN6, CLDN3, CLDN4 and CLDN9.

Row | EC50 [nM] | Binder
59 | 2090 | B7
60 | 2240 | B8
61 | ≥ 5000 | B9

molecular target: T2, Claudin-9 (CLDN9); assay: FACS titration of labelled mAb on HEK293T CLDN9-mGFP cells
Experimental: as §1, §2, §3

Row | EC50 [nM] | Binder
62 | 2760 | B3
63 | 25 | B6
64 | 2470 | B7
65 | 1860 | B10
66 | 246 | B11

molecular target: human Claudin-6 (CLDN6) (human) (UniProt P56747); assay: FACS, 0.3 ug Ab, 293T clone expressing human CLDN6 (2nd Ab only 768.07)

Row | FACS fluorescence | Binder
67 | 120000 | B1

molecular target: human Claudin-6 (CLDN6) (human) (UniProt P56747); assay: FACS, 1.5 ug Ab, 293T clone expressing human CLDN6 (2nd Ab only 768.07)

Row | FACS fluorescence | Binder
68 | 227000 | B1

molecular target: T3, mouse Claudin-6 (CLDN6); assay: FACS titration of labelled mAb on HEK293T mouse CLDN6-mGFP cells
Experimental: as §1, §2, §3

Row | EC50 [nM] | Binder
69 | 72 | B3
70 | ≥ 5000 | B4
71 | 2490 | B5
72 | 11 | B6
73 | 2380 | B8
74 | ≥ 5000 | B9
75 | ≥ 5000 | B10

molecular target: T3, mouse Claudin-6 (CLDN6); assay: FACS, 293T clone expressing mouse CLDN6, dose not stated (2nd Ab only 1061.72)
Experimental: Two doses (1.5 μg or 0.3 μg) of the humanized antibodies were tested for binding to either human CLDN6 or murine CLDN6 which proteins were expressed by engineered 293T clones.

Row | FACS fluorescence | Binder
76 | 77600 | B1

— US20230049752A1 (University of California, published 2023)
